# B1: NLV2 TCR alpha chain (CDR3α only) (parent)
# chain: AGPMKTSYDKVI
# Variants of: B1
# Test: T-Switch: Jurkat TCRβ−/− cells expressing a CDR3 saturation-mutagenesis library, stained with two peptide-HLA-A*02:01 tetramers (original and novel peptide) plus anti-CD3, FACS-sorted into four gates, gDNA sequenced
# Conditions: tetramers 1 µg/mL, 30 min on ice, SP, DP and SW gates expanded about 10 days between rounds ('two to three rounds of selection' in the Methods), unresolved parent, parent is a CDR3 fragment, scale: fold enrichment, numbering: sequential-on-construct, sequence starts at 1
# [1] = with both tetramers (double-negative gate, binds neither): HLA-A*02:01 with … and with …, gate DN: OPPOSITE: higher = more of the variant in the gate that binds neither peptide = LESS binding (or no expression; inferred). Fold enrichment of the CDR3 variant in one FACS gate of a two-tetram
# [2] = with both tetramers (double-positive gate): HLA-A*02:01 with … and with …, gate DP: higher = more of the variant in the gate that binds both peptides. Fold enrichment of the CDR3 variant in one FACS gate of a two-tetramer stain. SP/DP/SW gates were expanded and re-sorted bef
variant,measurement,setting,value
[…] (CDR3 as printed); M4H derived by comparing it with the table's wild-type CDR3 AGPMKTSYDKVI,enrichment,[1],0.903
same,enrichment,[2],0
[…] (CDR3 as printed); I12P derived by comparing it with the table's wild-type CDR3 AGPMKTSYDKVI,enrichment,[1],1.18
same,enrichment,[2],0
[…] (CDR3 as printed); K10L derived by comparing it with the table's wild-type CDR3 AGPMKTSYDKVI,enrichment,[1],1.05
same,enrichment,[2],0
[…] (CDR3 as printed); G2Q derived by comparing it with the table's wild-type CDR3 AGPMKTSYDKVI,enrichment,[1],0.677
same,enrichment,[2],0
[…] (CDR3 as printed); I12G derived by comparing it with the table's wild-type CDR3 AGPMKTSYDKVI,enrichment,[1],1.06
same,enrichment,[2],0
[…] (CDR3 as printed); D9C derived by comparing it with the table's wild-type CDR3 AGPMKTSYDKVI,enrichment,[1],0.717
same,enrichment,[2],0
[…] (CDR3 as printed); G2A derived by comparing it with the table's wild-type CDR3 AGPMKTSYDKVI,enrichment,[1],0.977
same,enrichment,[2],0
[…] (CDR3 as printed); G2H derived by comparing it with the table's wild-type CDR3 AGPMKTSYDKVI,enrichment,[1],0.822
same,enrichment,[2],0
[…] (CDR3 as printed); K5I derived by comparing it with the table's wild-type CDR3 AGPMKTSYDKVI,enrichment,[1],1.56
same,enrichment,[2],0
[…] (CDR3 as printed); G2I derived by comparing it with the table's wild-type CDR3 AGPMKTSYDKVI,enrichment,[1],1.1
same,enrichment,[2],0
[…] (CDR3 as printed); K5L derived by comparing it with the table's wild-type CDR3 AGPMKTSYDKVI,enrichment,[1],0.992
same,enrichment,[2],0
[…] (CDR3 as printed); G2K derived by comparing it with the table's wild-type CDR3 AGPMKTSYDKVI,enrichment,[1],0.928
same,enrichment,[2],0
[…] (CDR3 as printed); D9V derived by comparing it with the table's wild-type CDR3 AGPMKTSYDKVI,enrichment,[1],0.959
same,enrichment,[2],0
[…] (CDR3 as printed); K10W derived by comparing it with the table's wild-type CDR3 AGPMKTSYDKVI,enrichment,[1],1.38
same,enrichment,[2],0
[…] (CDR3 as printed); A1Y derived by comparing it with the table's wild-type CDR3 AGPMKTSYDKVI,enrichment,[1],0.935
same,enrichment,[2],0
[…] (CDR3 as printed); M4F derived by comparing it with the table's wild-type CDR3 AGPMKTSYDKVI,enrichment,[1],1.34
same,enrichment,[2],0
[…] (CDR3 as printed); M4I derived by comparing it with the table's wild-type CDR3 AGPMKTSYDKVI,enrichment,[1],0.318
same,enrichment,[2],0
[…] (CDR3 as printed); K10Q derived by comparing it with the table's wild-type CDR3 AGPMKTSYDKVI,enrichment,[1],0.706
same,enrichment,[2],0
[…] (CDR3 as printed); A1L derived by comparing it with the table's wild-type CDR3 AGPMKTSYDKVI,enrichment,[1],0.94
same,enrichment,[2],0
[…] (CDR3 as printed); G2T derived by comparing it with the table's wild-type CDR3 AGPMKTSYDKVI,enrichment,[1],0.533
same,enrichment,[2],0
[…] (CDR3 as printed); G2N derived by comparing it with the table's wild-type CDR3 AGPMKTSYDKVI,enrichment,[1],0.848
same,enrichment,[2],0
[…] (CDR3 as printed); G2V derived by comparing it with the table's wild-type CDR3 AGPMKTSYDKVI,enrichment,[1],0.88
same,enrichment,[2],0
[…] (CDR3 as printed); K5S derived by comparing it with the table's wild-type CDR3 AGPMKTSYDKVI,enrichment,[1],0.492
same,enrichment,[2],0
[…] (CDR3 as printed); G2E derived by comparing it with the table's wild-type CDR3 AGPMKTSYDKVI,enrichment,[1],0.844
same,enrichment,[2],0
[…] (CDR3 as printed); K10M derived by comparing it with the table's wild-type CDR3 AGPMKTSYDKVI,enrichment,[1],1.08
same,enrichment,[2],0
[…] (CDR3 as printed); G2S derived by comparing it with the table's wild-type CDR3 AGPMKTSYDKVI,enrichment,[1],1.02
same,enrichment,[2],0
[…] (CDR3 as printed); K10G derived by comparing it with the table's wild-type CDR3 AGPMKTSYDKVI,enrichment,[1],1
same,enrichment,[2],0
[…] (CDR3 as printed); A1V derived by comparing it with the table's wild-type CDR3 AGPMKTSYDKVI,enrichment,[1],0.809
same,enrichment,[2],0
[…] (CDR3 as printed); I12D derived by comparing it with the table's wild-type CDR3 AGPMKTSYDKVI,enrichment,[1],0.942
same,enrichment,[2],0
[…] (CDR3 as printed); D9M derived by comparing it with the table's wild-type CDR3 AGPMKTSYDKVI,enrichment,[1],0.931
same,enrichment,[2],0
[…] (CDR3 as printed); A1P derived by comparing it with the table's wild-type CDR3 AGPMKTSYDKVI,enrichment,[1],0.883
same,enrichment,[2],0
[…] (CDR3 as printed); K10T derived by comparing it with the table's wild-type CDR3 AGPMKTSYDKVI,enrichment,[1],1.24
same,enrichment,[2],0
[…] (CDR3 as printed); M4A derived by comparing it with the table's wild-type CDR3 AGPMKTSYDKVI,enrichment,[1],0.697
same,enrichment,[2],0
[…] (CDR3 as printed); D9T derived by comparing it with the table's wild-type CDR3 AGPMKTSYDKVI,enrichment,[1],0.889
same,enrichment,[2],0
[…] (CDR3 as printed); D9F derived by comparing it with the table's wild-type CDR3 AGPMKTSYDKVI,enrichment,[1],1.2
same,enrichment,[2],0
[…] (CDR3 as printed); K5A derived by comparing it with the table's wild-type CDR3 AGPMKTSYDKVI,enrichment,[1],0.428
same,enrichment,[2],0
[…] (CDR3 as printed); K10H derived by comparing it with the table's wild-type CDR3 AGPMKTSYDKVI,enrichment,[1],0.835
same,enrichment,[2],0
[…] (CDR3 as printed); A1I derived by comparing it with the table's wild-type CDR3 AGPMKTSYDKVI,enrichment,[1],0.798
same,enrichment,[2],0
[…] (CDR3 as printed); G2M derived by comparing it with the table's wild-type CDR3 AGPMKTSYDKVI,enrichment,[1],1.1
same,enrichment,[2],0
[…] (CDR3 as printed); G2D derived by comparing it with the table's wild-type CDR3 AGPMKTSYDKVI,enrichment,[1],1.02
same,enrichment,[2],0
[…] (CDR3 as printed); M4E derived by comparing it with the table's wild-type CDR3 AGPMKTSYDKVI,enrichment,[1],0.637
same,enrichment,[2],0
[…] (CDR3 as printed); D9L derived by comparing it with the table's wild-type CDR3 AGPMKTSYDKVI,enrichment,[1],0.93
same,enrichment,[2],0
[…] (CDR3 as printed); I12N derived by comparing it with the table's wild-type CDR3 AGPMKTSYDKVI,enrichment,[1],1.04
same,enrichment,[2],0
[…] (CDR3 as printed); D9S derived by comparing it with the table's wild-type CDR3 AGPMKTSYDKVI,enrichment,[1],1.04
same,enrichment,[2],0
[…] (CDR3 as printed); A1Q derived by comparing it with the table's wild-type CDR3 AGPMKTSYDKVI,enrichment,[1],0.89
same,enrichment,[2],0
[…] (CDR3 as printed); I12R derived by comparing it with the table's wild-type CDR3 AGPMKTSYDKVI,enrichment,[1],1.1
same,enrichment,[2],0
[…] (CDR3 as printed); K5V derived by comparing it with the table's wild-type CDR3 AGPMKTSYDKVI,enrichment,[1],0.87
same,enrichment,[2],0
[…] (CDR3 as printed); I12K derived by comparing it with the table's wild-type CDR3 AGPMKTSYDKVI,enrichment,[1],0.703
same,enrichment,[2],0
[…] (CDR3 as printed); I12L derived by comparing it with the table's wild-type CDR3 AGPMKTSYDKVI,enrichment,[1],0.907
same,enrichment,[2],0
[…] (CDR3 as printed); K10N derived by comparing it with the table's wild-type CDR3 AGPMKTSYDKVI,enrichment,[1],1.16
same,enrichment,[2],0
[…] (CDR3 as printed); A1S derived by comparing it with the table's wild-type CDR3 AGPMKTSYDKVI,enrichment,[1],0.736
same,enrichment,[2],0
[…] (CDR3 as printed); K5C derived by comparing it with the table's wild-type CDR3 AGPMKTSYDKVI,enrichment,[1],1.03
same,enrichment,[2],0
[…] (CDR3 as printed); D9I derived by comparing it with the table's wild-type CDR3 AGPMKTSYDKVI,enrichment,[1],1.01
same,enrichment,[2],0
[…] (CDR3 as printed); M4D derived by comparing it with the table's wild-type CDR3 AGPMKTSYDKVI,enrichment,[1],0.825
same,enrichment,[2],0
[…] (CDR3 as printed); K10F derived by comparing it with the table's wild-type CDR3 AGPMKTSYDKVI,enrichment,[1],1.13
same,enrichment,[2],0
[…] (CDR3 as printed); K10S derived by comparing it with the table's wild-type CDR3 AGPMKTSYDKVI,enrichment,[1],1.01
same,enrichment,[2],0
[…] (CDR3 as printed); I12Q derived by comparing it with the table's wild-type CDR3 AGPMKTSYDKVI,enrichment,[1],1.17
same,enrichment,[2],0
[…] (CDR3 as printed); D9H derived by comparing it with the table's wild-type CDR3 AGPMKTSYDKVI,enrichment,[1],1.29
same,enrichment,[2],0

# From publication PMC13397619
